Measured values taken from article PMC7040222.

Tested on: N=C(N)NCCC[C@H](NC(=O)[C@H](Cc1ccccc1)NC(=O)OCc1ccccc1)C(=O)Nc1ccc([N+](=O)[O-])cc1
Test: purified protein
Conditions: proenzyme heat-shocked 10 min at 56°C, then activated, assay at room temperature

Sequence of EP-B2 (Hordeum vulgare; K311A) (chain, as listed by the source K311A): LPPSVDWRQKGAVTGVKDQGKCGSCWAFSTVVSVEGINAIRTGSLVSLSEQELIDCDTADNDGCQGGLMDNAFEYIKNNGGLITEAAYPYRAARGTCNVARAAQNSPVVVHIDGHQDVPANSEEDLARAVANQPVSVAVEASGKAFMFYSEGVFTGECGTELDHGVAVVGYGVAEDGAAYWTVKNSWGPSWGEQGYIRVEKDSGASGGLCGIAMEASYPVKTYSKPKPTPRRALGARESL
Sequence of EP-B2 (Hordeum vulgare) (chain, as listed by the source): as the sequence (chain, as listed by the source K311A) above, with A178K counted along it

Substance | Km | Vmax | Km (variant M3) | Vmax (variant M3)
EP-B2 (Hordeum vulgare) | 530.0 µM | 0.142 µM/min |  | 
EP-B2 (Hordeum vulgare; K311A) |  |  | 1188 µM | 0.236 µM/min
